Experiments:
[1] = test system: Scd6 (His-Scd6-FLAG, unmethylated) (Saccharomyces cerevisiae); experiment: EMSA; settings: EMSA: 10 mM Tris pH 8, 50 mM NaCl, 0.05% NP-40, 6% glycerol, 1 mM DTT, 2 ug/ml BSA, 0.5 ug/ml tRNA, 30 C 30 min; 2.5% agarose, 1x MOPS, EtBr
[2] = test system: Scd6 (His-Scd6-FLAG), arginine-methylated in vitro by Hmt1 (Saccharomyces cerevisiae); experiment: EMSA; settings: EMSA: 10 mM Tris pH 8, 50 mM NaCl, 0.05% NP-40, 6% glycerol, 1 mM DTT, 2 ug/ml BSA, 0.5 ug/ml tRNA, 30 C 30 min; 2.5% agarose, 1x MOPS, EtBr

## SRS2 5'UTR 200-mer RNA
[1]
  Kd: 2860 nM
[2]
  Kd: 2700 nM

Reference: paper PMC12116771
